Assay results taken from US20240209062A1 (INVETX, published 2024).
Positions count from the first letter of the chain named. In names and notes the source's numbering stands. Values belong to the binder of their own block, whether it stands above or below them.

Molecular target: T1, feline FcRn (soluble portion of large subunit p51 isoform X1 with C-terminal 6xHis-tag, co-expressed with … (feline, UniProt Q5MGS7 21-118))
T1 construct: Heterodimer made by co-expression in CHO cells, purified on HisTrap FF; also called FcRn complex
T1 sequence (chain, as listed by the source limits assumed, chain 1 of 2): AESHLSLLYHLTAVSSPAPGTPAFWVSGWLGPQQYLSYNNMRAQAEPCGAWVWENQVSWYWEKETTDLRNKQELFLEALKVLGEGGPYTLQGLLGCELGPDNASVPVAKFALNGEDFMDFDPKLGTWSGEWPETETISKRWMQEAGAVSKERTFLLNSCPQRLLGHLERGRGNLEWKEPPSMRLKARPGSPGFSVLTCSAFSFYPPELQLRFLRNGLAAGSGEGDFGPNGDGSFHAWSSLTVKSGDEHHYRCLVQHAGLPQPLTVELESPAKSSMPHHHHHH
T1 sequence (Q5MGS7 other isoform, or with tags, fused parts or gaps limits assumed, chain 2 of 2): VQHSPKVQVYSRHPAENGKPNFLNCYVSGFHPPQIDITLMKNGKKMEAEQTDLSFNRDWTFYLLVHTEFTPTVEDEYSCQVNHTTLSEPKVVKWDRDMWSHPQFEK
Experiment: SPR, Biacore T200, IgG captured on Protein L chip, feline FcRn flowed over, pH 5.9, 1:1 fit
Procedure: The feline FcRn binding experiments at pH 5.9 were completed on a BIACORE™ T200 instrument. A Series S Protein L Sensor chip (Cytiva, Cat. No. BR29205137) was used to capture the antibody variants via the kappa (κ) light chain. The feline variants were captured onto the protein L chip at a flow rate of 10 μL/min for 60 seconds. 1×PBX-P+(Cytiva Cat 28995084) was adjusted to pH 5.9 for the running buffer. The feline FcRn was flowed over the sensor chip at 30 μL/min for 120 seconds contact time and 600 seconds dissociation time. Regeneration of the flow cells was completed by flowing over 10 mM glycine, pH 1.7 at 30 μL/min for 30 seconds. The data were evaluated by the BIACORE™T200 Evaluation software v3.2.1 by fitting to a 1:1 kinetic interaction model.

Kd: 28.4 nM
koff: 0.0319 s⁻¹
kon: 1.12e+06 M⁻¹ s⁻¹
B1: IgG with feline IgG1a Fc variant S428M, Q311V (antibody)
heavy: DVQLVESGGDLVKPGGSLRLTCVASGLSLTSDSMSWVRQAPGKGLQWVSTLWSNRGTYYTDSVKGRFTISKDNAENTLYLQMNNLKTEDTATYYCASIYYYEADYLHWYFDFWGQGALVTVSSASTTAPSVFPLAPSCGTTSGATVALACLVLGYFPEPVTVSWNSGALTSGVHTFPAVLQASGLYSLSSMVTVPSSRWLSDTFTCNVAHPPSNTKVDKTVRKTDHPPGPKPCDCPKCPPPEAAGGPSIFIFPPKPKDTLSISRTPEVTCLVVDLGPDDSDVQITWFVDNTQVYTAKTSPREEQFNSTYRVVSVLPILHVDWLKGKEFKCKVNSKSLPSPIERTISKAKGQPHEPQVYVLPPAQEELSRNKVSVTCLIKSFHPPDIAVEWEITGQPEPENNYRTTPPQLDSDGTYFVYSKLSVDRSHWQRGNTYTCSVMHEALHSHHTQKSLTQSPG
light: EIQMTQSPTSLSASVGDRVTITCRASEGIANNLSWYQQTPGKAPKLLIYATSNLHSGVPSRFSGSGSGTDFTLTISSLQPEDFATYYCQQGFKWPLTFGGGTKLEITRSDAQPSVFLFQPSLDELHTGSASIVCILNDFYPKEVNVKWKVDGVVQNKGIQESTTEQNSKDSTYSLSSTLTMSSTEYQSHEKFSCEVTHKSLASTLVKSFNRSECQRE
notes: IgG1a constant domain with MALA mutations (M234A, L244A as printed); variable domains from WO 2023/97275

Kd: 98.7 nM
koff: 0.082 s⁻¹
kon: 830000 M⁻¹ s⁻¹
B2: IgG with feline IgG1a Fc variant S428M, R301Y (antibody)
heavy: B1 heavy with R310Y, V320Q
light: B1 light
notes: as for B1

Kd: 34.9 nM
koff: 0.0372 s⁻¹
kon: 1.07e+06 M⁻¹ s⁻¹
B3: IgG with feline IgG1a Fc variant S428M, T286D (antibody)
heavy: B1 heavy with T295D, V320Q
light: B1 light
notes: as for B1

Kd: 98.5 nM
koff: 0.0801 s⁻¹
kon: 812000 M⁻¹ s⁻¹
B4: IgG with feline IgG1a Fc variant S428M, R301V (antibody)
heavy: B1 heavy with R310V, V320Q
light: B1 light
notes: as for B1

Kd: 103 nM
koff: 0.0835 s⁻¹
kon: 809000 M⁻¹ s⁻¹
B5: IgG with feline IgG1a Fc variant S428M, R301L (antibody)
heavy: B1 heavy with R310L, V320Q
light: B1 light
notes: as for B1

Kd: 101 nM
koff: 0.0795 s⁻¹
kon: 789000 M⁻¹ s⁻¹
B6: IgG with feline IgG1a Fc variant S428M, R392D (antibody)
heavy: B1 heavy with V320Q, R403D
light: B1 light
notes: as for B1

Kd: 97.8 nM
koff: 0.0766 s⁻¹
kon: 784000 M⁻¹ s⁻¹
B7: IgG with feline IgG1a Fc variant S428M, R392E (antibody)
heavy: B1 heavy with V320Q, R403E
light: B1 light
notes: as for B1

Kd: 27.4 nM
koff: 0.0292 s⁻¹
kon: 1.07e+06 M⁻¹ s⁻¹
B8: IgG with feline IgG1a Fc variant S428M, T286E (antibody)
heavy: B1 heavy with T295E, V320Q
light: B1 light
notes: as for B1
